System: Escherichia coli TOP10
Experiment: shrunken log2 fold change of peptide-encoding DNA abundance (4.5 h post-induction vs induction); higher = less antimicrobial activity (less host growth inhibition)
Details: time post-induction: 4.5 h; library: site-saturation at positions 5, 18, 19, 20
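Further: peptides expressed intracellularly from a pBAD plasmid library in pooled LB shake-flask culture, induced with 0.3% L-arabinose, DNA abundance read by NGS, three biological replicates, DESeq2 with apeglm shrinkage.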

Row | Sequence | shrunken log2 fold change
1 | RRIRCRPPRLPRPRPRPDCKPRP | -0.392
2 | RRIRLRPPRLPRPRPRPQTDPRP | -0.139
3 | RRIRFRPPRLPRPRPRPCAEPRP | 0.111
4 | RRIRIRPPRLPRPRPRPPHAPRP | 0.162
5 | RRIRGRPPRLPRPRPRPGTVPRP | 0.206
6 | RRIRCRPPRLPRPRPRPKMDPRP | -0.0622
7 | RRIRQRPPRLPRPRPRPQKYPRP | -0.517
8 | RRIRYRPPRLPRPRPRPHQCPRP | -0.0856
9 | RRIRYRPPRLPRPRPRPQTCPRP | -0.0146
10 | RRIRFRPPRLPRPRPRPWETPRP | 0.0299
11 | RRIRGRPPRLPRPRPRPHHAPRP | 0.254
12 | RRIRFRPPRLPRPRPRPREKPRP | -0.0136
13 | RRIRFRPPRLPRPRPRPQMKPRP | -0.41
14 | RRIRGRPPRLPRPRPRPFACPRP | 0.39
15 | RRIRMRPPRLPRPRPRPAPPPRP | 1.43
16 | RRIRYRPPRLPRPRPRPNTIPRP | -1.05
17 | RRIRRRPPRLPRPRPRPMCVPRP | -0.0364
18 | RRIRSRPPRLPRPRPRPADVPRP | 0.438
19 | RRIRSRPPRLPRPRPRPGHTPRP | 0.0898
20 | RRIRQRPPRLPRPRPRPRPQPRP | 0.262
21 | RRIRCRPPRLPRPRPRPMVQPRP | -0.292
22 | RRIRCRPPRLPRPRPRPECPPRP | 0.293

Row | Sequence | shrunken log2 fold change
23 | RRIRNRPPRLPRPRPRPFRQPRP | 0.0231
24 | RRIRCRPPRLPRPRPRPIIAPRP | -0.494
25 | RRIRERPPRLPRPRPRPGNIPRP | -0.989
26 | RRIRYRPPRLPRPRPRPRPKPRP | 0.374
27 | RRIRHRPPRLPRPRPRPMLIPRP | -0.824
28 | RRIRQRPPRLPRPRPRPIEDPRP | -0.126
29 | RRIRTRPPRLPRPRPRPTIHPRP | -0.712
30 | RRIRIRPPRLPRPRPRPMWGPRP | -0.196
31 | RRIRDRPPRLPRPRPRPYQYPRP | -0.0404
32 | RRIRRRPPRLPRPRPRPMEKPRP | 0.096
33 | RRIRLRPPRLPRPRPRPDTMPRP | -0.286
34 | RRIRNRPPRLPRPRPRPFMWPRP | -0.134
35 | RRIRARPPRLPRPRPRPRLAPRP | 1.53
36 | RRIRGRPPRLPRPRPRPMCKPRP | 0.886
37 | RRIRERPPRLPRPRPRPIEMPRP | -0.0653
38 | RRIRCRPPRLPRPRPRPDQRPRP | -0.254
39 | RRIRERPPRLPRPRPRPIPEPRP | -0.882
40 | RRIRERPPRLPRPRPRPATMPRP | -0.324
41 | RRIRKRPPRLPRPRPRPYKAPRP | -0.0235
42 | RRIRKRPPRLPRPRPRPECEPRP | 0.0869
43 | RRIRWRPPRLPRPRPRPEERPRP | 0.0923
44 | RRIRSRPPRLPRPRPRPRQPPRP | 0.268

Row | Sequence | shrunken log2 fold change
45 | RRIRNRPPRLPRPRPRPEFCPRP | 0.0216
46 | RRIRVRPPRLPRPRPRPSCDPRP | -0.231
47 | RRIRPRPPRLPRPRPRPATPPRP | 0.216
48 | RRIRKRPPRLPRPRPRPIPFPRP | 0.347
49 | RRIRNRPPRLPRPRPRPYQTPRP | -0.00141
50 | RRIRIRPPRLPRPRPRPMAMPRP | -0.024
51 | RRIRMRPPRLPRPRPRPWHRPRP | -0.0718
52 | RRIRDRPPRLPRPRPRPPAYPRP | -0.0668
53 | RRIRNRPPRLPRPRPRPDWAPRP | -0.0406
54 | RRIRSRPPRLPRPRPRPNYLPRP | -0.071
55 | RRIRSRPPRLPRPRPRPNSKPRP | -0.382
56 | RRIRVRPPRLPRPRPRPMVHPRP | 0.141
57 | RRIRLRPPRLPRPRPRPEMGPRP | 0.144
58 | RRIRERPPRLPRPRPRPEMDPRP | 0.125
59 | RRIRGRPPRLPRPRPRPTTAPRP | 1.31
60 | RRIRARPPRLPRPRPRPNWCPRP | 0.206
61 | RRIRTRPPRLPRPRPRPYHPPRP | -0.304
62 | RRIRERPPRLPRPRPRPKGSPRP | 0.00854
63 | RRIRDRPPRLPRPRPRPAASPRP | 0.049
64 | RRIRARPPRLPRPRPRPKNCPRP | -0.245
65 | RRIRDRPPRLPRPRPRPAVEPRP | 0.845
66 | RRIRGRPPRLPRPRPRPRGPPRP | 1.66

Row | Sequence | shrunken log2 fold change
67 | RRIRDRPPRLPRPRPRPRLNPRP | -0.0317
68 | RRIRWRPPRLPRPRPRPWGGPRP | 0.556
69 | RRIRHRPPRLPRPRPRPQHCPRP | -0.503
70 | RRIRLRPPRLPRPRPRPYKHPRP | -0.619
71 | RRIRGRPPRLPRPRPRPHQDPRP | 0.165
72 | RRIRSRPPRLPRPRPRPTVPPRP | 0.0372
73 | RRIRDRPPRLPRPRPRPCQFPRP | 0.0215
74 | RRIRMRPPRLPRPRPRPKECPRP | -0.0981
75 | RRIRYRPPRLPRPRPRPWSPPRP | -0.848
76 | RRIRFRPPRLPRPRPRPTQMPRP | 0.149
77 | RRIRHRPPRLPRPRPRPNQTPRP | -0.0854
78 | RRIRQRPPRLPRPRPRPLFMPRP | -1.12
79 | RRIRVRPPRLPRPRPRPTNVPRP | -0.374
80 | RRIRTRPPRLPRPRPRPTNRPRP | 0.0146
81 | RRIRWRPPRLPRPRPRPIGIPRP | -0.0434
82 | RRIRPRPPRLPRPRPRPKFQPRP | 0.103
83 | RRIRLRPPRLPRPRPRPCGQPRP | -0.0417
84 | RRIRMRPPRLPRPRPRPDLGPRP | 0.11
85 | RRIRTRPPRLPRPRPRPHFGPRP | -0.00836
86 | RRIRFRPPRLPRPRPRPFSPPRP | -1.12
87 | RRIRQRPPRLPRPRPRPGCSPRP | 0.0894
88 | RRIRKRPPRLPRPRPRPYVPPRP | -0.423

Row | Sequence | shrunken log2 fold change
89 | RRIRHRPPRLPRPRPRPFLKPRP | -0.0136
90 | RRIRGRPPRLPRPRPRPYMCPRP | 0.0864
91 | RRIRKRPPRLPRPRPRPEGRPRP | 0.261
92 | RRIRHRPPRLPRPRPRPSTYPRP | -0.202
93 | RRIRDRPPRLPRPRPRPRPSPRP | 0.329
94 | RRIRWRPPRLPRPRPRPVGSPRP | 0.445
95 | RRIRQRPPRLPRPRPRPYSNPRP | -0.0703
96 | RRIRCRPPRLPRPRPRPQPQPRP | 0.526
97 | RRIRERPPRLPRPRPRPGDPPRP | 0.103
98 | RRIRSRPPRLPRPRPRPASRPRP | 0.189
99 | RRIRLRPPRLPRPRPRPWAGPRP | -0.0317
100 | RRIRWRPPRLPRPRPRPMPTPRP | 0.721
101 | RRIRVRPPRLPRPRPRPRNYPRP | -0.567
102 | RRIRYRPPRLPRPRPRPFHKPRP | -0.0655
103 | RRIRRRPPRLPRPRPRPRCIPRP | 0.174
104 | RRIRMRPPRLPRPRPRPQTDPRP | 0.19
105 | RRIRGRPPRLPRPRPRPQAHPRP | 0.441
106 | RRIRKRPPRLPRPRPRPWRNPRP | -0.0406
107 | RRIRIRPPRLPRPRPRPDDAPRP | -0.319
108 | RRIRMRPPRLPRPRPRPIFGPRP | 0.0873
109 | RRIRVRPPRLPRPRPRPCWLPRP | -0.0153

— the supplement of paper PMC9112550, “Optimization of the antimicrobial peptide Bac7 by deep mutational scanning” (BMC Biology, 2022)
